Data on 1 molecule can be found in patent US20160238591A1 (MIT, published 2016).

This assay has as its target T1, Cys2-pilin-C (Streptococcus pyogenes serotype M1, UniProt Q9A1S2 18-299, N-terminal Cys2 linker attached to the shell surface of the nanocrystal (QD or dot-in-rod HNC) during shell synthesis).
T1 construct: Tested only as a nanocrystal conjugate; also called QD-pilin-C; CdSe/CdS QD-pilin-C conjugates
T1 sequence: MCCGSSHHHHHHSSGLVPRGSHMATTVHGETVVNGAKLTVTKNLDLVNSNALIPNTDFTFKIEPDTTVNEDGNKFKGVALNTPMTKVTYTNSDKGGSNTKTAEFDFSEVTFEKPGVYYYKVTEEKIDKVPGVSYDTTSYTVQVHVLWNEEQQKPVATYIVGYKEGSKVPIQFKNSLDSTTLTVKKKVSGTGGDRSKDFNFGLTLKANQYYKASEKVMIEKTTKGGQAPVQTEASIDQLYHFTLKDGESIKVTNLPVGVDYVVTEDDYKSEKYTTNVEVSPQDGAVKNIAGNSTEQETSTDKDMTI
In words: TEM and HRTEM (FIGS. 11, 11A and 11B).

B1: CsgAHisTag amyloid fibrils (other)
chain: GVVPQYGGGGNHGGGGNNSGPNHHHHHHHSELNIYQYGGGNSALALQTDARNSDLTITQHGGGNGADVGQGSDDSSIDLTQRGFGNSATLDQWNGKNSEMTVKQFGGGNGAAVDQTASNSSVNVTQVGFGNNATAHQYHHHHHHH
notes: Fibrils composed only of CsgAHisTag subunits, used as a control for QD-pilin-C
In the case of B1, the binding result is “no binding”.
